According to the RNAGym collection of RNA variant scans (doi:10.1021/acssynbio.7b00057):

B1: Pistol ribozyme (parent)
chain: GGGUCGUUGUUCCAUAAUCGCGUGGAUAUGGCACGCAAGUUUCUACCGGGCACCGUAAAUGUCCGACUGGAGCCGUUCGGGCGGCUAUAAACAGACCUCAGGCCCGAAGCGUGGCGGCACCUGCCGCCGGUGGUAAAAAAGAUCGGAAGAGCACACGUCU

Variants of: B1
Assay: aptazyme ON/OFF ratio, guanine; higher = stronger switching; co-transcriptional cleavage with and without guanine

Variant	aptazyme ON/OFF ratio
GGGUCGCCAAGACAUAAUCGCGUGGAUAUGGCACGCAAGUUUCUACCGGGCACCGUAAAUGUCCGACUGGAGCCGUUCGGGCGGCUAUAAACAGACCUCAGGCCCGAAGCGUGGCGGCACCUGCCGCCGGUGGUAAAAAAGAUCGGAAGAGCACACGUCU [U7C U8C G9A U10A U11G C12A]	1.08
GGGUCGAUGCCCAAUAAUCGCGUGGAUAUGGCACGCAAGUUUCUACCGGGCACCGUAAAUGUCCGACUGGAGCCGUUCGGGCGGCUAUAAACAGACCUCAGGCCCGAAGCGUGGCGGCACCUGCCGCCGGUGGUAAAAAAGAUCGGAAGAGCACACGUCU [U7A U10C U11C C13A]	1.03
GGGUCGUUAUCGUAUAAUCGCGUGGAUAUGGCACGCAAGUUUCUACCGGGCACCGUAAAUGUCCGACUGGAGCCGUUCGGGCGGCUAUAAACAGACCUCAGGCCCGAAGCGUGGCGGCACCUGCCGCCGGUGGUAAAAAAGAUCGGAAGAGCACACGUCU [G9A U11C C12G C13U]	1.33
GGGUCGCCUGCCGAUAAUCGCGUGGAUAUGGCACGCAAGUUUCUACCGGGCACCGUAAAUGUCCGACUGGAGCCGUUCGGGCGGCUAUAAACAGACCUCAGGCCCGAAGCGUGGCGGCACCUGCCGCCGGUGGUAAAAAAGAUCGGAAGAGCACACGUCU [U7C U8C G9U U10G U11C C13G]	1.06
GGGUCGUCGGCACAUAAUCGCGUGGAUAUGGCACGCAAGUUUCUACCGGGCACCGUAAAUGUCCGACUGGAGCCGUUCGGGCGGCUAUAAACAGACCUCAGGCCCGAAGCGUGGCGGCACCUGCCGCCGGUGGUAAAAAAGAUCGGAAGAGCACACGUCU [U8C U10G U11C C12A]	2.79
GGGUCGCGUUGCAAUAAUCGCGUGGAUAUGGCACGCAAGUUUCUACCGGGCACCGUAAAUGUCCGACUGGAGCCGUUCGGGCGGCUAUAAACAGACCUCAGGCCCGAAGCGUGGCGGCACCUGCCGCCGGUGGUAAAAAAGAUCGGAAGAGCACACGUCU [U7C U8G G9U U11G C13A]	1.21
GGGUCGGUGGUGCAUAAUCGCGUGGAUAUGGCACGCAAGUUUCUACCGGGCACCGUAAAUGUCCGACUGGAGCCGUUCGGGCGGCUAUAAACAGACCUCAGGCCCGAAGCGUGGCGGCACCUGCCGCCGGUGGUAAAAAAGAUCGGAAGAGCACACGUCU [U7G U10G C12G]	1.09
GGGUCGAGAUUAUAUAAUCGCGUGGAUAUGGCACGCAAGUUUCUACCGGGCACCGUAAAUGUCCGACUGGAGCCGUUCGGGCGGCUAUAAACAGACCUCAGGCCCGAAGCGUGGCGGCACCUGCCGCCGGUGGUAAAAAAGAUCGGAAGAGCACACGUCU [U7A U8G G9A C12A C13U]	1.35
GGGUCGGCUGUCAAUAAUCGCGUGGAUAUGGCACGCAAGUUUCUACCGGGCACCGUAAAUGUCCGACUGGAGCCGUUCGGGCGGCUAUAAACAGACCUCAGGCCCGAAGCGUGGCGGCACCUGCCGCCGGUGGUAAAAAAGAUCGGAAGAGCACACGUCU [U7G U8C G9U U10G C13A]	1.24
GGGUCGGUCGUAGAUAAUCGCGUGGAUAUGGCACGCAAGUUUCUACCGGGCACCGUAAAUGUCCGACUGGAGCCGUUCGGGCGGCUAUAAACAGACCUCAGGCCCGAAGCGUGGCGGCACCUGCCGCCGGUGGUAAAAAAGAUCGGAAGAGCACACGUCU [U7G G9C U10G C12A C13G]	1.11
GGGUCGCACCAUAAUAAUCGCGUGGAUAUGGCACGCAAGUUUCUACCGGGCACCGUAAAUGUCCGACUGGAGCCGUUCGGGCGGCUAUAAACAGACCUCAGGCCCGAAGCGUGGCGGCACCUGCCGCCGGUGGUAAAAAAGAUCGGAAGAGCACACGUCU [U7C U8A G9C U10C U11A C12U C13A]	1.04
GGGUCGUGGGUGUAUAAUCGCGUGGAUAUGGCACGCAAGUUUCUACCGGGCACCGUAAAUGUCCGACUGGAGCCGUUCGGGCGGCUAUAAACAGACCUCAGGCCCGAAGCGUGGCGGCACCUGCCGCCGGUGGUAAAAAAGAUCGGAAGAGCACACGUCU [U8G U10G C12G C13U]	1.35
GGGUCGUGUCGCUAUAAUCGCGUGGAUAUGGCACGCAAGUUUCUACCGGGCACCGUAAAUGUCCGACUGGAGCCGUUCGGGCGGCUAUAAACAGACCUCAGGCCCGAAGCGUGGCGGCACCUGCCGCCGGUGGUAAAAAAGAUCGGAAGAGCACACGUCU [U8G G9U U10C U11G C13U]	1.03
GGGUCGGUUCUAGAUAAUCGCGUGGAUAUGGCACGCAAGUUUCUACCGGGCACCGUAAAUGUCCGACUGGAGCCGUUCGGGCGGCUAUAAACAGACCUCAGGCCCGAAGCGUGGCGGCACCUGCCGCCGGUGGUAAAAAAGAUCGGAAGAGCACACGUCU [U7G G9U U10C C12A C13G]	1.21
GGGUCGUCUAUCCAUAAUCGCGUGGAUAUGGCACGCAAGUUUCUACCGGGCACCGUAAAUGUCCGACUGGAGCCGUUCGGGCGGCUAUAAACAGACCUCAGGCCCGAAGCGUGGCGGCACCUGCCGCCGGUGGUAAAAAAGAUCGGAAGAGCACACGUCU [U8C G9U U10A]	1.42
GGGUCGCACUCUCAUAAUCGCGUGGAUAUGGCACGCAAGUUUCUACCGGGCACCGUAAAUGUCCGACUGGAGCCGUUCGGGCGGCUAUAAACAGACCUCAGGCCCGAAGCGUGGCGGCACCUGCCGCCGGUGGUAAAAAAGAUCGGAAGAGCACACGUCU [U7C U8A G9C U11C C12U]	1.14
GGGUCGGGGAAGUAUAAUCGCGUGGAUAUGGCACGCAAGUUUCUACCGGGCACCGUAAAUGUCCGACUGGAGCCGUUCGGGCGGCUAUAAACAGACCUCAGGCCCGAAGCGUGGCGGCACCUGCCGCCGGUGGUAAAAAAGAUCGGAAGAGCACACGUCU [U7G U8G U10A U11A C12G C13U]	1.13
GGGUCGACGUGAUAUAAUCGCGUGGAUAUGGCACGCAAGUUUCUACCGGGCACCGUAAAUGUCCGACUGGAGCCGUUCGGGCGGCUAUAAACAGACCUCAGGCCCGAAGCGUGGCGGCACCUGCCGCCGGUGGUAAAAAAGAUCGGAAGAGCACACGUCU [U7A U8C U11G C12A C13U]	1.16

Variant	aptazyme ON/OFF ratio
GGGUCGCUUGUCGAUAAUCGCGUGGAUAUGGCACGCAAGUUUCUACCGGGCACCGUAAAUGUCCGACUGGAGCCGUUCGGGCGGCUAUAAACAGACCUCAGGCCCGAAGCGUGGCGGCACCUGCCGCCGGUGGUAAAAAAGAUCGGAAGAGCACACGUCU [U7C G9U U10G C13G]	1.06
GGGUCGAUAUUUGAUAAUCGCGUGGAUAUGGCACGCAAGUUUCUACCGGGCACCGUAAAUGUCCGACUGGAGCCGUUCGGGCGGCUAUAAACAGACCUCAGGCCCGAAGCGUGGCGGCACCUGCCGCCGGUGGUAAAAAAGAUCGGAAGAGCACACGUCU [U7A G9A C12U C13G]	1.17
GGGUCGCUUGUUAAUAAUCGCGUGGAUAUGGCACGCAAGUUUCUACCGGGCACCGUAAAUGUCCGACUGGAGCCGUUCGGGCGGCUAUAAACAGACCUCAGGCCCGAAGCGUGGCGGCACCUGCCGCCGGUGGUAAAAAAGAUCGGAAGAGCACACGUCU [U7C G9U U10G C12U C13A]	1.2
GGGUCGUAUGAAGAUAAUCGCGUGGAUAUGGCACGCAAGUUUCUACCGGGCACCGUAAAUGUCCGACUGGAGCCGUUCGGGCGGCUAUAAACAGACCUCAGGCCCGAAGCGUGGCGGCACCUGCCGCCGGUGGUAAAAAAGAUCGGAAGAGCACACGUCU [U8A G9U U10G U11A C12A C13G]	1.16
GGGUCGACUCGUCAUAAUCGCGUGGAUAUGGCACGCAAGUUUCUACCGGGCACCGUAAAUGUCCGACUGGAGCCGUUCGGGCGGCUAUAAACAGACCUCAGGCCCGAAGCGUGGCGGCACCUGCCGCCGGUGGUAAAAAAGAUCGGAAGAGCACACGUCU [U7A U8C G9U U10C U11G C12U]	1.17
GGGUCGUCUAAGGAUAAUCGCGUGGAUAUGGCACGCAAGUUUCUACCGGGCACCGUAAAUGUCCGACUGGAGCCGUUCGGGCGGCUAUAAACAGACCUCAGGCCCGAAGCGUGGCGGCACCUGCCGCCGGUGGUAAAAAAGAUCGGAAGAGCACACGUCU [U8C G9U U10A U11A C12G C13G]	1.16
GGGUCGAGACAUCAUAAUCGCGUGGAUAUGGCACGCAAGUUUCUACCGGGCACCGUAAAUGUCCGACUGGAGCCGUUCGGGCGGCUAUAAACAGACCUCAGGCCCGAAGCGUGGCGGCACCUGCCGCCGGUGGUAAAAAAGAUCGGAAGAGCACACGUCU [U7A U8G G9A U10C U11A C12U]	1.2
GGGUCGAGCAUCCAUAAUCGCGUGGAUAUGGCACGCAAGUUUCUACCGGGCACCGUAAAUGUCCGACUGGAGCCGUUCGGGCGGCUAUAAACAGACCUCAGGCCCGAAGCGUGGCGGCACCUGCCGCCGGUGGUAAAAAAGAUCGGAAGAGCACACGUCU [U7A U8G G9C U10A]	1.24
GGGUCGGCGACUAAUAAUCGCGUGGAUAUGGCACGCAAGUUUCUACCGGGCACCGUAAAUGUCCGACUGGAGCCGUUCGGGCGGCUAUAAACAGACCUCAGGCCCGAAGCGUGGCGGCACCUGCCGCCGGUGGUAAAAAAGAUCGGAAGAGCACACGUCU [U7G U8C U10A U11C C12U C13A]	1.13
GGGUCGACGGGUCAUAAUCGCGUGGAUAUGGCACGCAAGUUUCUACCGGGCACCGUAAAUGUCCGACUGGAGCCGUUCGGGCGGCUAUAAACAGACCUCAGGCCCGAAGCGUGGCGGCACCUGCCGCCGGUGGUAAAAAAGAUCGGAAGAGCACACGUCU [U7A U8C U10G U11G C12U]	1.34
GGGUCGAUCACAUAUAAUCGCGUGGAUAUGGCACGCAAGUUUCUACCGGGCACCGUAAAUGUCCGACUGGAGCCGUUCGGGCGGCUAUAAACAGACCUCAGGCCCGAAGCGUGGCGGCACCUGCCGCCGGUGGUAAAAAAGAUCGGAAGAGCACACGUCU [U7A G9C U10A U11C C12A C13U]	1.09
GGGUCGAAGCAUUAUAAUCGCGUGGAUAUGGCACGCAAGUUUCUACCGGGCACCGUAAAUGUCCGACUGGAGCCGUUCGGGCGGCUAUAAACAGACCUCAGGCCCGAAGCGUGGCGGCACCUGCCGCCGGUGGUAAAAAAGAUCGGAAGAGCACACGUCU [U7A U8A U10C U11A C12U C13U]	1.11
GGGUCGUAGCUAUAUAAUCGCGUGGAUAUGGCACGCAAGUUUCUACCGGGCACCGUAAAUGUCCGACUGGAGCCGUUCGGGCGGCUAUAAACAGACCUCAGGCCCGAAGCGUGGCGGCACCUGCCGCCGGUGGUAAAAAAGAUCGGAAGAGCACACGUCU [U8A U10C C12A C13U]	1.26
GGGUCGAGAGCUCAUAAUCGCGUGGAUAUGGCACGCAAGUUUCUACCGGGCACCGUAAAUGUCCGACUGGAGCCGUUCGGGCGGCUAUAAACAGACCUCAGGCCCGAAGCGUGGCGGCACCUGCCGCCGGUGGUAAAAAAGAUCGGAAGAGCACACGUCU [U7A U8G G9A U10G U11C C12U]	1.16
GGGUCGUGUAUUAAUAAUCGCGUGGAUAUGGCACGCAAGUUUCUACCGGGCACCGUAAAUGUCCGACUGGAGCCGUUCGGGCGGCUAUAAACAGACCUCAGGCCCGAAGCGUGGCGGCACCUGCCGCCGGUGGUAAAAAAGAUCGGAAGAGCACACGUCU [U8G G9U U10A C12U C13A]	1.2
GGGUCGAUCUAGUAUAAUCGCGUGGAUAUGGCACGCAAGUUUCUACCGGGCACCGUAAAUGUCCGACUGGAGCCGUUCGGGCGGCUAUAAACAGACCUCAGGCCCGAAGCGUGGCGGCACCUGCCGCCGGUGGUAAAAAAGAUCGGAAGAGCACACGUCU [U7A G9C U11A C12G C13U]	1.08
GGGUCGAGGAUAGAUAAUCGCGUGGAUAUGGCACGCAAGUUUCUACCGGGCACCGUAAAUGUCCGACUGGAGCCGUUCGGGCGGCUAUAAACAGACCUCAGGCCCGAAGCGUGGCGGCACCUGCCGCCGGUGGUAAAAAAGAUCGGAAGAGCACACGUCU [U7A U8G U10A C12A C13G]	1.23
GGGUCGCCUGGAUAUAAUCGCGUGGAUAUGGCACGCAAGUUUCUACCGGGCACCGUAAAUGUCCGACUGGAGCCGUUCGGGCGGCUAUAAACAGACCUCAGGCCCGAAGCGUGGCGGCACCUGCCGCCGGUGGUAAAAAAGAUCGGAAGAGCACACGUCU [U7C U8C G9U U10G U11G C12A C13U]	1.1
